Laboratory results from the RNAGym collection of RNA variant scans (doi:10.7554/elife.80360).

B1: HDV Ribozyme (parent)
chain: GGCCGGCAUGGUCCCAGCCUCCUCGCUGGCGCCGGCUGGGCAACAUUCCGAGGGGACCGUCCCCUCGGUAAUGGCGAAUGGGACCCA

Variants of: B1
Test: self-cleavage, relative activity (ratio to wild type); higher = more cleavage; co-transcriptional

| Variant | self-cleavage |
| --- | --- |
| G76C C86G | 0.971 |
| G76C C86A | 0.854 |
| A77C U79A | 0.297 |
| A77C U79C | 0.138 |
| A77C U79G | 0.151 |
| A78C G81A | 0.17 |
| A77U A83U | 0.0898 |
| A78C A83C | 0.151 |
| G76A G80C | 0.0719 |
| G76A G80A | 0.585 |
| G76A G80U | 0.441 |
| C75G C86A | 0.147 |
| A77U G81U | 0.237 |
| A77U G81A | 0.185 |
| A78G U79G | 0.268 |
| C75U A87U | 0.185 |
| C75U A87C | 0.161 |
| G76U A77C | 0.295 |
| U79A A83G | 0.375 |
| G76C G81A | 0.499 |
| C75U G82U | 0.296 |
| C75U C86A | 0.111 |
| A78G G80A | 0.242 |
| A77U C86G | 0.623 |

| Variant | self-cleavage |
| --- | --- |
| A78G G82U | 0.295 |
| A78G G82C | 0.0519 |
| G76C A77C | 0.104 |
| G76U G81C | 0.628 |
| G76U G81U | 0.462 |
| G76C G80C | 0.093 |
| G76C G80A | 0.394 |
| G76U U79G | 0.91 |
| G76U U79C | 0.782 |
| A77C C84G | 0.317 |
| A78C A87C | 0.199 |
| A78C A87G | 0.127 |
| A78C A87U | 0.199 |
| A77U G82A | 0.271 |
| A77U G82U | 0.0811 |
| A77G G80U | 0.244 |
| A78G A87U | 0.862 |
| A78G A87C | 0.452 |
| A77G G81U | 0.348 |
| A77G G81A | 0.287 |
| A77G G81C | 0.256 |
| A78G C86A | 0.727 |
| A78G C86U | 0.643 |
| A78U G82A | 0.109 |

| Variant | self-cleavage |
| --- | --- |
| C75G G81C | 0.0831 |
| G76A A78U | 0.673 |
| G76A A78G | 0.816 |
| G76A A78C | 0.242 |
| C75U | 0.19 |
| G76A U79A | 0.831 |
| A78C G82A | 0.106 |
| A78C G82U | 0.212 |
| A78G A83U | 0.0437 |
| A78G A83G | 0.445 |
| C75U A83U | 0.199 |
| C75U A83C | 0.128 |
| U79A | 0.808 |
| G76U A78U | 0.475 |
| G76U A78C | 0.219 |
| A77C A87C | 0.391 |
| C75G C84U | 0.0978 |
| C75U U79G | 0.0594 |
| C75U U79A | 0.151 |
| A77C A78U | 0.208 |
| C75G G76A | 0.196 |
| C75G G76U | 0.237 |
| A77G A78G | 0.277 |
| A77G A78C | 0.172 |

| Variant | self-cleavage |
| --- | --- |
| A77G A78U | 0.266 |
| G76A A87G | 1.01 |
| G76U A87U | 1.04 |
| C75G U79A | 0.123 |
| C75G U79G | 0.0791 |
| A77G A83C | 0.208 |
| A77G A83U | 0.635 |
| G76A G81A | 0.332 |
| G76U C85G | 1.16 |
| G76U C85U | 1.24 |
| G76U C85A | 1.05 |
| G76C G82U | 0.326 |
| A78C C85U | 0.0923 |
| A78C C85A | 0.277 |
| A77U C85A | 0.514 |
| G76A A83C | 0.539 |
| G76A A83G | 0.992 |
| A78G G81U | 0.185 |
| G76U C84U | 1.11 |
| G76U C84A | 0.906 |
| G76U C84G | 1.05 |
| G76C A83C | 0.201 |
| C75G G80U | 0.104 |
| C75G G80A | 0.11 |

| Variant | self-cleavage |
| --- | --- |
| A77G C86U | 0.886 |
| G76A C84A | 0.958 |
| C75U A77G | 0.0415 |
| C75U A77C | 0.208 |
| A78G C84U | 0.53 |
| A78G C84A | 0.571 |
| A77C G82U | 0.0755 |
| A77U C84A | 0.291 |
| A77U C84G | 0.403 |
| C75U G76A | 0.0852 |
| C75U G76C | 0.271 |
| C75U A78G | 0.214 |
| C75U A78U | 0.264 |
| G76C A87C | 1.08 |
| A77U A87U | 0.785 |
| A78U A87C | 0.31 |
| A78U A87G | 0.226 |
| A77C G80U | 0.219 |
| G76U C86G | 1.09 |
| G76U C86A | 0.615 |
| A77U U79A | 0.32 |
| A77U U79C | 0.0811 |
| A78G C85G | 0.539 |
| A78G C85A | 0.86 |

| Variant | self-cleavage |
| --- | --- |
| A77C G81U | 0.116 |
| A77C G81A | 0.173 |
| C75U C84G | 0.136 |
| C75U C84A | 0.237 |
| C75G C85G | 0.0923 |
| C75G C85A | 0.208 |
| A77G C84U | 0.631 |
| A77C C85U | 0.192 |
| G76U G80A | 0.595 |
| G76U G80C | 0.204 |
| G76U G80U | 0.407 |
| G76A C86G | 1.08 |
| G76A G82C | 0.214 |
| G76A G82A | 0.35 |
| G76A G82U | 0.601 |
| U79A C84A | 0.539 |
| A78U A83U | 0.269 |
| A78U A83G | 0.285 |
| A78U C86G | 0.163 |
| A78U C86U | 0.309 |
| A78U C86A | 0.208 |
| G76A C85G | 0.962 |
| G76A C85A | 0.904 |
| U79A A87C | 0.849 |

| Variant | self-cleavage |
| --- | --- |
| U79A A87U | 0.98 |
| G76C C84A | 1.19 |
| G76C C84U | 1.04 |
| A77U A78U | 0.259 |
| G76U G82C | 0.277 |
| G76U G82A | 0.343 |
| A78C C84G | 0.11 |
| A78C C84A | 0.156 |
| A78C C84U | 0.196 |
| A77U G80C | 0.136 |
| A77U G80A | 0.0923 |
| A77U G80U | 0.161 |
| A77G A87U | 0.851 |
| A78C U79C | 0.153 |
| A78C U79G | 0.113 |
| C75G G82C | 0.271 |
| A78U G81U | 0.269 |
| A77C A83U | 0.312 |
| A77C A83G | 0.156 |
| A78U G80C | 0.174 |
| A78U G80U | 0.244 |
| G76C A78C | 0.192 |
| G76C A78G | 0.944 |
